Source: patent US20080069777A1

Tests used:
[1] = biological target: whole LFA-1 in which the α subunit contains an I-domain in the low affinity locked closed state, on cells (LA cells) (human) (UniProt P05107); assay: phage ELISA, LA form of LFA-1, without Mg2+
[2] = biological target: whole LFA-1 in which the α subunit contains an I-domain in the low affinity locked closed state, on cells (LA cells) (human) (UniProt P05107); assay: phage ELISA, LA form of LFA-1, with Mg2+
[3] = biological target: whole LFA-1 in which the α subunit contains an I-domain in the high affinity locked open state, on cells (HA cells) (human) (UniProt P05107); assay: inhibition of ICAM binding to HA cells, Guava analysis; third experiment
[4] = biological target: human wild-type LFA-1 on cells (human) (UniProt P20701); assay: inhibition of ICAM binding to human PBMCs; average of four experiments
[5] = biological target: whole LFA-1 in which the α subunit contains an I-domain in the high affinity locked open state, on cells (HA cells) (human) (UniProt P05107); assay: inhibition of ICAM binding to HA cells, Guava analysis; first experiment
[6] = biological target: whole LFA-1 in which the α subunit contains an I-domain in the high affinity locked open state, on cells (HA cells) (human) (UniProt P05107); assay: inhibition of ICAM binding to HA cells, Guava analysis; second experiment
[7] = biological target: whole LFA-1 in which the α subunit contains an I-domain in the high affinity locked open state, on cells (HA cells) (human) (UniProt P05107); assay: inhibition of ICAM binding to HA cells, Guava analysis; fourth experiment

Chain of human wild-type LFA-1 on cells (human) (P20701 other isoform, or with tags, fused parts or gaps limits assumed, chain 1 of 2): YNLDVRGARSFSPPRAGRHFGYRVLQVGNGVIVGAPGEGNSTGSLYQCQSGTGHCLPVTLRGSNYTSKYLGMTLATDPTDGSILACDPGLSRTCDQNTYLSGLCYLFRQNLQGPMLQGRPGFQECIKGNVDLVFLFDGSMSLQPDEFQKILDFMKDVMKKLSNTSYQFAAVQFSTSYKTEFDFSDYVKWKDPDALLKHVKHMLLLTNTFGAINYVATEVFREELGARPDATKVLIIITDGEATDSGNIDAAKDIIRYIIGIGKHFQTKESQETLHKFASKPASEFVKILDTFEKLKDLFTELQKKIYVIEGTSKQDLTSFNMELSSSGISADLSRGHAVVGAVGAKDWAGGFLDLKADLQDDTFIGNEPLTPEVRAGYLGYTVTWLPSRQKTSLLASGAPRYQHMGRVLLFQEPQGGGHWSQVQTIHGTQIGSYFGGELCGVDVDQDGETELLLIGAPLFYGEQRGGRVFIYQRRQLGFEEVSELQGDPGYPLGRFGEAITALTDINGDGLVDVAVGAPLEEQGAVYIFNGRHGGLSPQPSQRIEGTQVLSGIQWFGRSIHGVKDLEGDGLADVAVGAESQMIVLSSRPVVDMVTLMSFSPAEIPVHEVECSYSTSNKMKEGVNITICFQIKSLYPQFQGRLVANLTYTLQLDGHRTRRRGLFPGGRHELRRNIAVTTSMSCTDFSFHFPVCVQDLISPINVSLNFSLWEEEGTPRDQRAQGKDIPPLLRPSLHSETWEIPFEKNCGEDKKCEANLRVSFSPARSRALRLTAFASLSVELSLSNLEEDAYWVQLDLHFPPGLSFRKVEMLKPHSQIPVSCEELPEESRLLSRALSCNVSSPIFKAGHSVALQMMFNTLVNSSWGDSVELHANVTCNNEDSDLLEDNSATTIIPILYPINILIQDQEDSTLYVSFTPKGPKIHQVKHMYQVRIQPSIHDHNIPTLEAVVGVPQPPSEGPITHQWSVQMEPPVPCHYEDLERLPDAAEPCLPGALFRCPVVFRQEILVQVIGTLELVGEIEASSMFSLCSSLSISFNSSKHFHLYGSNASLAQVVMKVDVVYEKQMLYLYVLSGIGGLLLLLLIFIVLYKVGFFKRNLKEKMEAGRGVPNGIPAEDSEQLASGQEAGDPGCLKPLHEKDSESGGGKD
Chain of human wild-type LFA-1 on cells (human) (chain, as listed by the source limits assumed, chain 2 of 2): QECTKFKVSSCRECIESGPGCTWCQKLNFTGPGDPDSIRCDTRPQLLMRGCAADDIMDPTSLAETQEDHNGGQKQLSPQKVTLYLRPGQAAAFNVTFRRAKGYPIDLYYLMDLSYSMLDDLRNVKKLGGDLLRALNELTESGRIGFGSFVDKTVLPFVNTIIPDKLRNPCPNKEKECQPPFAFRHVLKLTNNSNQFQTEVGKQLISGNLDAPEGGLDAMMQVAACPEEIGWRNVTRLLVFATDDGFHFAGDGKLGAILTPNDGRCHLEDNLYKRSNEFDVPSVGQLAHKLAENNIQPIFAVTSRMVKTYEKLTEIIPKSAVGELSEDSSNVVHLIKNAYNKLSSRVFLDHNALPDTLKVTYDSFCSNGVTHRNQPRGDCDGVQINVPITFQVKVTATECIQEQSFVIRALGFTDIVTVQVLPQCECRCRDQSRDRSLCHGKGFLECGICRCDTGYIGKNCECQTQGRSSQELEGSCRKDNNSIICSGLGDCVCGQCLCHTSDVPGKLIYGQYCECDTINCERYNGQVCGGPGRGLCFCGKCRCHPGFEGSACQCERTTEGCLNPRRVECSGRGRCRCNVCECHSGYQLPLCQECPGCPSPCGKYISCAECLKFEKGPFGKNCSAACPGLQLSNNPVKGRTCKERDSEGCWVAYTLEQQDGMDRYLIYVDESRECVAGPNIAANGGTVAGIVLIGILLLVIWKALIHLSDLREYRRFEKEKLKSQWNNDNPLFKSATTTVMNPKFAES

Substance | ELISA signal (arbitrary units) [1] | ELISA signal (arbitrary units) [2] | IC50 [3] | IC50 [4] | IC50 [5] | IC50 [6] | IC50 [7]
Control #1 (a phage that binds to a different target) | 0.07 | 0.13 | – | – | – | – | –
Control #2 (another protein that binds to a different target) | 0.07 | 0.14 | – | – | – | – | –
MHM24 IgG (antibody) | – | – | 0.59 nM | 0.33 nM | 0.24 nM | 1.8 nM | 2.4 nM
